Reference: patent publication USRE46585 (LABORATOIRE FRANCAIS DU FRACTIONNEMENT ET DES …, dated 2017)
Numbering of substitutions follows the chain as printed. Where two headings read alike, the source gives them in different places. Each block holds one binder with its values, some of them ahead of it.

Experiments:
[1] = molecular target: T1, FcRn-p3 fusion protein (human, UniProt P55899 24-297; P61769 21-119); assay: phage ELISA pH6
T1 construct: baculovirus expressed; coated on ELISA wells; not shown: amino terminal part of bacteriophage p3 protein and CVDE protein

[2] = molecular target: T1, FcRn-p3 fusion protein; assay: phage ELISA pH6; remark: listed apart in the source
[3] = molecular target: T1, FcRn-p3 fusion protein; assay: phage ELISA pH6 (est.)
[4] = molecular target: T1, FcRn-p3 fusion protein; assay: phage ELISA pH6 (est.); remark: listed apart in the source
[5] = molecular target: T1, FcRn-p3 fusion protein; assay: phage ELISA pH6; remark: listed apart in the source

B1: B4A_03 (other)
chain: CPPCPAPELLGGPSVFLFPPKPKDTLMISRTPEVTCVVVDVSHEDPEVKFNWYVDGVEVHNAKTKPWEEQYNSTYRVVSVLPVLHQDWLNGKEYKCKVSNKALPVPIEKTISKAKGQPREPQVYTLPPSRDELTKNQVSLTCLVKGFYPSDIAVEWESNGQPENNYKTTPPVLDSDGSFFLYSKLTVDKSRWQQGNVFSCSVMHEALHSHYTQKSLSLSPGK
notes: EU numbering
Ratio/Fc-WT [1]: 3.7 fold

B2: C3A_13 (other)
chain: B1 chain with C1G, W67R, P82T, N90D, S209Y
notes: EU numbering
Ratio/Fc-H [2]: 5.6 fold | Ratio/Fc-WT [3]: 17.9 fold | Ratio/FWT [4]: 17.9 fold | Ratio/Fc-H [5]: 5.6 fold

B3: T5A_57 (other)
chain: B1 chain with F16L, W67R, P82T, N90D, K167R, S209Y
notes: EU numbering
Ratio/Fc-H [2]: 4.9 fold | Ratio/Fc-WT [3]: 15.8 fold | Ratio/FWT [4]: 15.8 fold | Ratio/Fc-H [5]: 4.9 fold

B5: T4A_42 (other)
chain: B1 chain with C1G, W67R, P82T, N90D, V105A, Q137R, S209Y
notes: EU numbering
Ratio/Fc-H [2]: 4.6 fold | Ratio/Fc-WT [3]: 14.7 fold | Ratio/FWT [4]: 14.7 fold | Ratio/Fc-H [5]: 4.6 fold

B6: T5A_74C (other)
chain: B1 chain with P3L, W67R, P82T, N90D, N136D, A153V, S209Y
notes: EU numbering
Ratio/Fc-WT [3]: 24 fold | Ratio/Fc-H [5]: 7.5 fold

B7: T5A_74F (other)
chain: B1 chain with P3R, P5S, W67R, P82T, N90D, N136D, A153V, S209Y
notes: EU numbering
Ratio/Fc-WT [3]: 53.8 fold | Ratio/Fc-H [5]: 16.8 fold

B10: T5A_25 (other)
chain: B1 chain with C1G, V39E, W67R, P82T, V105A, Q122R, K145R, A153V
notes: EU numbering
Ratio/Fc-H [2]: 4.6 fold | Ratio/Fc-WT [3]: 14.7 fold | Ratio/FWT [4]: 14.7 fold | Ratio/Fc-H [5]: 4.6 fold

B11: B5A_17 (other)
chain: B1 chain with W67R, P82T, N90D, V105A, Q137R, S209Y
notes: EU numbering
Ratio/Fc-WT [1]: 4.6 fold

B13: B5A_25 (other)
chain: B1 chain with F18L, W67R, P82T, N90D, V105A, T186A
notes: EU numbering
Ratio/Fc-WT [1]: 3.6 fold

B14: C5A_65 (other)
chain: B1 chain with P5T, W67R, P82T, N90D, Q161K, S209Y
notes: EU numbering
Ratio/Fc-H [2]: 4.2 fold | Ratio/Fc-WT [3]: 13.5 fold | Ratio/FWT [4]: 13.5 fold | Ratio/Fc-H [5]: 4.2 fold

B19: C5A_09 (other)
chain: B1 chain with F16L, V39E, W67R, V105A, A153V
notes: EU numbering
Ratio/Fc-H [2]: 4.8 fold | Ratio/Fc-WT [3]: 15.2 fold | Ratio/FWT [4]: 15.2 fold | Ratio/Fc-H [5]: 4.8 fold

B20: T5A_55 (other)
chain: B1 chain with P5L, F16L, F18L, V39E, W67R, V105A, A153V, S209N
notes: EU numbering
Ratio/Fc-H [2]: 5.6 fold | Ratio/Fc-WT [3]: 17.9 fold | Ratio/FWT [4]: 17.9 fold | Ratio/Fc-H [5]: 5.6 fold

B21: T4A_48 (other)
chain: B1 chain with W67R, P82T, V83I, N90D, E157V, S209Y
notes: EU numbering
Ratio/Fc-H [2]: 4.5 fold | Ratio/Fc-WT [3]: 14.5 fold | Ratio/FWT [4]: 14.5 fold | Ratio/Fc-H [5]: 4.5 fold

B22: T5A_74D (other)
chain: B1 chain with P3R, W67R, P82T, N90D, N136D, A153V, S209Y
notes: EU numbering
Ratio/Fc-WT [3]: 83.1 fold | Ratio/Fc-H [5]: 26 fold

B23: T5A_74B (other)
chain: B1 chain with P5S, W67R, P82T, N90D, N136D, A153V, S209Y
notes: EU numbering
Ratio/Fc-WT [3]: 18.8 fold | Ratio/Fc-H [5]: 5.9 fold

B24: T4A_37 (other)
chain: B1 chain with P5S, V39E, W67R, P82T, V105A, P127S, A153V
notes: EU numbering
Ratio/Fc-H [2]: 4 fold | Ratio/Fc-WT [3]: 12.8 fold | Ratio/FWT [4]: 12.8 fold | Ratio/Fc-H [5]: 4 fold

B25: T5A_87 (other)
chain: B1 chain with W67R, P82T, N90D, Q137R, S209Y
notes: EU numbering
Ratio/Fc-H [2]: 7.8 fold | Ratio/Fc-WT [3]: 25 fold | Ratio/FWT [4]: 25 fold | Ratio/Fc-H [5]: 7.8 fold

B28: C5A_39 (other)
chain: B1 chain with K65E, W67R, P82T, N90D, V105A, Q117R, E157V, S209Y
notes: EU numbering
Ratio/Fc-H [2]: 5 fold | Ratio/Fc-WT [3]: 15.9 fold | Ratio/FWT [4]: 15.9 fold | Ratio/Fc-H [5]: 5 fold

B29: B5A_16 (other)
chain: B1 chain with S14A, W67R, S73G, P82T, N90D, V105A, Q122R, S209Y, S215R
notes: EU numbering
Ratio/Fc-WT [1]: 5.6 fold

B31: T5A_93 (other)
chain: B1 chain with W67R, V80A, P82T, N90D, P170A, S209Y
notes: EU numbering
Ratio/Fc-H [2]: 8 fold | Ratio/Fc-WT [3]: 25.7 fold | Ratio/FWT [4]: 25.7 fold | Ratio/Fc-H [5]: 8 fold

B32: T5A_45 (other)
chain: B1 chain with A6T, F16L, V39E, W67R, P82T, V105A, A153T, V172M
notes: EU numbering
Ratio/Fc-H [2]: 4.5 fold | Ratio/Fc-WT [3]: 14.3 fold | Ratio/FWT [4]: 14.3 fold | Ratio/Fc-H [5]: 4.5 fold

The remaining lines, values ahead:

Ratio/Fc-H [2]: 4.5 fold | Ratio/Fc-WT [3]: 14.4 fold | Ratio/FWT [4]: 14.4 fold | Ratio/Fc-H [5]: 4.5 fold
B4: C6A_48 (other)
chain: B1 chain with P5T, V39E, W67R, P82T, V105A, A153V
notes: EU numbering

Ratio/Fc-WT [3]: 30.1 fold | Ratio/Fc-H [5]: 9.4 fold
B8: C6A_78F (other)
chain: B1 chain with P3R, P5S, T31N, W67R, P82T, V105A, A153V, S209Y
notes: EU numbering

Ratio/Fc-WT [3]: 90.5 fold | Ratio/Fc-H [5]: 28.3 fold
B9: C6A_78D (other)
chain: B1 chain with P3R, T31N, W67R, P82T, V105A, A153V, S209Y
notes: EU numbering

Ratio/Fc-WT [3]: 29.4 fold | Ratio/Fc-H [5]: 9.2 fold
B12: C6A_78C (other)
chain: B1 chain with P5S, T31N, W67R, P82T, V105A, A153V, S209Y
notes: EU numbering

Ratio/Fc-H [2]: 7.4 fold | Ratio/Fc-WT [3]: 23.8 fold | Ratio/FWT [4]: 23.8 fold | Ratio/Fc-H [5]: 7.4 fold
B15: C6A_85 (other)
chain: B1 chain with W67R, V80A, P82T, N90D, N164K, S209Y
notes: EU numbering

Ratio/Fc-H [2]: 4.6 fold | Ratio/Fc-WT [3]: 14.9 fold | Ratio/FWT [4]: 14.9 fold | Ratio/Fc-H [5]: 4.6 fold
B16: C6A_12 (other)
chain: B1 chain with P5T, W67R, P82T, N90D, V105A, Q137E, S209Y
notes: EU numbering

Ratio/Fc-H [2]: 5.7 fold | Ratio/Fc-WT [3]: 18.3 fold | Ratio/FWT [4]: 18.3 fold | Ratio/Fc-H [5]: 5.7 fold
B17: T6A_75 (other)
chain: B1 chain with P5T, W67R, P82T, N90D, V105A, Q137R, S201T, S209Y
notes: EU numbering

Ratio/Fc-H [2]: 5.1 fold | Ratio/Fc-WT [3]: 16.3 fold | Ratio/FWT [4]: 16.3 fold | Ratio/Fc-H [5]: 5.1 fold
B18: T6A_85 (other)
chain: B1 chain with T25A, W67R, P82T, N90D, N100S, S209Y
notes: EU numbering

Ratio/Fc-H [2]: 6.7 fold | Ratio/Fc-WT [3]: 21.4 fold | Ratio/FWT [4]: 21.4 fold | Ratio/Fc-H [5]: 6.7 fold
B26: T7A_92 (other)
chain: B1 chain with V39E, W67R, P82T, V105A, P171L, S190N
notes: EU numbering

Ratio/Fc-WT [3]: 45.9 fold | Ratio/Fc-H [5]: 14.4 fold
B27: C6A_78B (other)
chain: B1 chain with P3L, T31N, W67R, P82T, V105A, A153V, S209Y
notes: EU numbering

Ratio/Fc-H [2]: 7.4 fold | Ratio/Fc-WT [3]: 23.7 fold | Ratio/FWT [4]: 23.7 fold | Ratio/Fc-H [5]: 7.4 fold
B30: C8A_15 (other)
chain: B1 chain with W67R, P82T, N90D, A102V, V172M, S209Y
notes: EU numbering
